Measurements taken from patent US8129149B1, “Rapid and sensitive method to measure endonuclease activity” (The United States of America as represented by the …, priority 2008, dated 2012).

Biological target: T1, Recombinant APE1 (Homo sapiens, UniProt P27695)
T1 construct: purchased NEW ENGLAND BIOLABS
Test: APE activity assay: APE cleavage of the substrate oligonucleotide, detected by Taq polymerase extension and real-time PCR
Type: biochemical
Conditions: well A04; Substrate DNA and Template DNA with APE
Procedure: Recombinant APE1 at 10,000 units/ml in 50% glycerol was purchased from NEW ENGLAND BIOLABS. One unit is defined as the amount of enzyme required to hydrolyze 20 pmol of a 34 bp oligonucleotide duplex containing a single AP site in a 10 ul reaction volume over one hour at 37° C. The reaction buffer consisted of 50 mM potassium acetate, 20 mM Tris-acetate, 10 mM magnesium acetate (pH 7.9) and 1 mM dithiothreitol.
All oligonucleotides, primers and probes were purchased from GENE LINK, INC. (Hawthorne, N.Y.). The two oligonucleotides that are specific to this technique, are designated the substrate and the template. The oligonucleotide with sequence 5′-GGGGTTTTGGGTTTTTTTAATTTTAGGTTGTGGTTGTGGTTGTCGGXGACGTGTTGGTTTTT/3ddC/3′ (SEQ. ID No. 1) serving as the substrate for APE contains the tetrahydrofuran, an abasic analog (X), and a 3′ dideoxy-C to prevent extension by DNA polymerase. […]
Real-time PCR was performed using a BIO-RAD LABORATORIES (Hercules, Calif.) ICYCLER using BIO-RAD LABORATORIES IQTM SUPERMIX. Cycle times were an initial step at 95° C. for 10 minutes followed by an amplification program of 50 cycles of 3 seconds at 95° C., 5 seconds at 61° C., and 20 seconds at 72° C. with fluorescence acquisition in relative florescent units at the end of each extension. […]

T1 sequence (P27695 whole entry): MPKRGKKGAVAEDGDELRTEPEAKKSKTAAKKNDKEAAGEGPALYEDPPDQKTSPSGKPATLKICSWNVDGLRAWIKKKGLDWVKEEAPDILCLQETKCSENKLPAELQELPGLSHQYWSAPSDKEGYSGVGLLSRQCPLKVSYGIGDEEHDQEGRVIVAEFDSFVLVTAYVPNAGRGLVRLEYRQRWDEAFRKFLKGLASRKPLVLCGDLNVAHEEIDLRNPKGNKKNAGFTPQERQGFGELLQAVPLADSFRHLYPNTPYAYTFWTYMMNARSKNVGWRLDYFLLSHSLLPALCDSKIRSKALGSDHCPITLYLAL

B1: 5′-GGGGTTTTGGGTTTTTTTAATTTTAGGTTGTGGTTGTGGTTGTCGGXGACGTGTTGGTTTTT/3ddC/3′ (nucleic acid)
chain: GGGGTTTTGGGTTTTTTTAATTTTAGGTTGTGGTTGTGGTTGTCGGGACGTGTTGGTTTTT
modifications: tetrahydrofuran abasic site; 3' dideoxy-C; SITE (46)...(47) Tetrahydrofuran is used to modify site 46 and 47. Serves as substrate for APE. Substrate is a commercial product. The 3′ end is modified by 3ddc/3′ to prevent extension by DNA polymerase.Chemically Synthesized
notes: substrate for APE; contains the tetrahydrofuran, an abasic analog (X), and a 3′ dideoxy-C to prevent extension by DNA polymerase
CT of real-time PCR amplification: 26.3
